Results reported in patent publication US20040157214A1.

Target: bovine thyroglobulin (bovine) (UniProt P01267)
Test: phage ELISA, 200 ug/ml thyroglobulin

Chain of pCAT-3 non-recombinant vector phagemid (P03661 19-424): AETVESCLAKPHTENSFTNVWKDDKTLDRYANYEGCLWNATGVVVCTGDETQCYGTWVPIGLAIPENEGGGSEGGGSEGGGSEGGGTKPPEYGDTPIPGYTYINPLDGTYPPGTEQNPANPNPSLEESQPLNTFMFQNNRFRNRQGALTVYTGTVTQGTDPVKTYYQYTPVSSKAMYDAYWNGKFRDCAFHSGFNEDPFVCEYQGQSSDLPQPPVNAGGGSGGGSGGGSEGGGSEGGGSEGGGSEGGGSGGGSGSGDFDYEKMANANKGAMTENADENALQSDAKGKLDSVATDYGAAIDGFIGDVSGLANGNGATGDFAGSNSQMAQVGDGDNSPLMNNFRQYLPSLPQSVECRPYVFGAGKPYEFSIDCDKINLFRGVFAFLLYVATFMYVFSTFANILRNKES
Chain of bovine thyroglobulin (bovine) (P01267 20-2769 limits assumed): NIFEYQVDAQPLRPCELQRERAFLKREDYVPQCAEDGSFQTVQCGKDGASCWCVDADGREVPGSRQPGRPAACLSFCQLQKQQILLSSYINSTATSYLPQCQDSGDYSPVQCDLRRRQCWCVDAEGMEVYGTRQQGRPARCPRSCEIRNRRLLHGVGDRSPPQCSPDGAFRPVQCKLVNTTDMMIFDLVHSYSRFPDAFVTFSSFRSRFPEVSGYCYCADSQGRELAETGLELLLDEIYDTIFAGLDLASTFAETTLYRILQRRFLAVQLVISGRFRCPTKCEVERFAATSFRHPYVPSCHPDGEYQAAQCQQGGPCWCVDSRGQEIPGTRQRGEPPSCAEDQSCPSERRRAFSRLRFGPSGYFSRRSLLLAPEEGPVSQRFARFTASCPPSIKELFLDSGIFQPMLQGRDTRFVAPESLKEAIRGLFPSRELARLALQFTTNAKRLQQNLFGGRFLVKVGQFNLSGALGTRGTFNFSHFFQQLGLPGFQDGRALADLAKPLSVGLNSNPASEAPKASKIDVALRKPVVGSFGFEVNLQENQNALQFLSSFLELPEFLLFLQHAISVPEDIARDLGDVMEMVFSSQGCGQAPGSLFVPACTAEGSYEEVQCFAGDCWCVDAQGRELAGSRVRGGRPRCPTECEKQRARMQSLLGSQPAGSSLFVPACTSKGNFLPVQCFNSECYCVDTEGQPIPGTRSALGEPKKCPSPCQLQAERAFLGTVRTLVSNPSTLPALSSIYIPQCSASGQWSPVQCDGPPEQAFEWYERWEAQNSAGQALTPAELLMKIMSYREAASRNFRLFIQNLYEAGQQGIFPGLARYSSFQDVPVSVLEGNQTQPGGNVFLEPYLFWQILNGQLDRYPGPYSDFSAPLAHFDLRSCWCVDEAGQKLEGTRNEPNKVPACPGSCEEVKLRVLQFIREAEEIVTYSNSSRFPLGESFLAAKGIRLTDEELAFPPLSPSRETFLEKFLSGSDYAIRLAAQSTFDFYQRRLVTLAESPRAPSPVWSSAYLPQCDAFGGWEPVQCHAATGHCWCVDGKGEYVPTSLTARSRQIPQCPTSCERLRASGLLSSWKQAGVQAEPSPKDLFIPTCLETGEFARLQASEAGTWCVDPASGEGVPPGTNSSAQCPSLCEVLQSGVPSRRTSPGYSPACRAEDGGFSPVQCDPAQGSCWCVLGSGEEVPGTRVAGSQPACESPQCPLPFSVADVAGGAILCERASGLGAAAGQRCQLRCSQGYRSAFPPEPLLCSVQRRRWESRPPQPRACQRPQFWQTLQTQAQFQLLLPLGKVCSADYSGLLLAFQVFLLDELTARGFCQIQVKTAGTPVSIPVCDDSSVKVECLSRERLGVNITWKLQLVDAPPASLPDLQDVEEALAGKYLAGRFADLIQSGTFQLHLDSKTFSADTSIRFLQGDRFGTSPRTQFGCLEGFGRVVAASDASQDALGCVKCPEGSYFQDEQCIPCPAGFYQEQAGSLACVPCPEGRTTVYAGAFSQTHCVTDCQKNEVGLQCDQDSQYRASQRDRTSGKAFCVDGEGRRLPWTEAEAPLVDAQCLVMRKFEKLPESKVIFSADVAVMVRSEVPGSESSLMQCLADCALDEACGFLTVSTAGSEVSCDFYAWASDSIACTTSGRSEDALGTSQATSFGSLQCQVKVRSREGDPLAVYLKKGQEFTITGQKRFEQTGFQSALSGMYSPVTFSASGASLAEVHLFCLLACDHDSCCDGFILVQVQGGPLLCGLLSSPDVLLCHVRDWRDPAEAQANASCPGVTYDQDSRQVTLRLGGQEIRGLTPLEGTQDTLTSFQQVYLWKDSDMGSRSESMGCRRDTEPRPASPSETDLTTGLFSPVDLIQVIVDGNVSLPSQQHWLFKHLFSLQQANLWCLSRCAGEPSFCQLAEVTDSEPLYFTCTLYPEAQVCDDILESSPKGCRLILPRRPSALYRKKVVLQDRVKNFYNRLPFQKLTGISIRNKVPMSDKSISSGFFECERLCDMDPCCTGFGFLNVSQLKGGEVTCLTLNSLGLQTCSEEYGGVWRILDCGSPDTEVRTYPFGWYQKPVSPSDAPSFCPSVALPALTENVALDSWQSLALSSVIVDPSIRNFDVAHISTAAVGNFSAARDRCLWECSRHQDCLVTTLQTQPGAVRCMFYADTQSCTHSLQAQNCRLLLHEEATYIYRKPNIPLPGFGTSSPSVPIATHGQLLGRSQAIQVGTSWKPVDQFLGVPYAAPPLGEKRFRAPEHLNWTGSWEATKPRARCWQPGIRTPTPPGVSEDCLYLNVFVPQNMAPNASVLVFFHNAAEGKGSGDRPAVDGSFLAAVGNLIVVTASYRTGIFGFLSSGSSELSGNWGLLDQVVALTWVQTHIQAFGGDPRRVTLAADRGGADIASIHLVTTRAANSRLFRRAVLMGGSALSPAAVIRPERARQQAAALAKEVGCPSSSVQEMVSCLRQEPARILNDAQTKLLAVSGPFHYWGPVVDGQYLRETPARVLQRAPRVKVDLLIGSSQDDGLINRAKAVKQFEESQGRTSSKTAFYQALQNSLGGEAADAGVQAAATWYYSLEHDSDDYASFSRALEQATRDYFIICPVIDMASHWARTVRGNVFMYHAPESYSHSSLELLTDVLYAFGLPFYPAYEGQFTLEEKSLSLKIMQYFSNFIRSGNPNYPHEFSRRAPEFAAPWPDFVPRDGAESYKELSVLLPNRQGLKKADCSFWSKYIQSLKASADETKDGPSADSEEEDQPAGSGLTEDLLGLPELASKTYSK

pCAT-3 non-recombinant vector phagemid (from UniProt P03661 19-424)
ELISA O.D.: 0.07 O.D.
